We go through 84 variants from the RNAGym collection of RNA variant scans (doi:10.1093/molbev/msab373).

B1: Azoarcus group I ribozyme (parent)
chain: GUGCCUUGCGCCGGGAAACCACGCAAGGGAUGGUGUCAAAUUCGGCGAAACCUAAGCGCCCGCCCGGGCGUAUGGCAACGCCGAGCCAAGCUUCGGCGCCUGCGCCGAUGAAGGUGUAGAGACUAGACGGCACCCACCUAAGGCAAACGCUAUGGUGAAGGCAUAGUCCAGGGAGUGGCGAAAGUCACACAAACCGG

Variants of B1 are the subject of this data set. The data set can be described thus: reverse-splicing fitness (ratio to wild type); higher = more active; in vitro selection; Mg2+ level not given. The procedure, abridged:
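An in vitro group I ribozyme library with randomized positions was T7-transcribed and gel-purified. In triplicate, 10 pmol RNA in EPPS pH 7.5 was reacted with 50 pmoles of a 30-nt RNA substrate for 1 h at 37 °C across several added MgCl2 levels (1–48 mM), then stopped with EDTA. Products were reverse transcribed from a substrate-complementary primer, PCR-amplified and sequenced (HiSeq 4000). Fitness is a variant's read proportion after selection over that before, normalised to wild type.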
As to C82U A111U A120U A145U C150U C169G, the reverse-splicing fitness stood at 0.00343.
On to C82U A111U A120U A145G C150G C169A U176A, for which the reverse-splicing fitness was found to be 0.0098.
Then A120U C150U C169U, with 0.203; and C82G A111C A120U A145G C150G C169U U176G, with 0.00438.
For C82A A111U A120C C150A C169A U176G the value was 0.0108; for A111G A145U C169U, 0.194; for A120U A145U C150A C169A, 0.00309.
Then A111U A145U C150G C169U U176C, with 0.0129; and A111U A120G A145G C150A C169G, with 0.0343; and C82A A111G A120U A145U C150U C169G, with 0.00324.
For the variant C82A A120G A145G C150G U176G, the reverse-splicing fitness came out at 0.00572.
For C82U A111G A120G A145G C150A U176C the value was 0.0196; for C82A A111G A120U A145G C150U C169G U176A, 0.0115.
For C82U A111G A120U the value was 0.0431.
For C82G A111G A120C A145C C169U U176A the value was 0.0142.
C82U A111U A145C C169A U176C: the reverse-splicing fitness worked out at 0.00614.
Then A111C A145G C150G C169U, with 0.0157; and C82U A111G A120U C150A U176C, with 0.00592; and C82A A111C A120U A145G C150G C169A U176A, with 0.0122.
For C82A A111C A120C A145U C169G U176G, the reverse-splicing fitness was found to be 0.00709.
With C82A A120U A145C C150A U176C, the reverse-splicing fitness amounted to 0.0051.
Then A111C A120G C150U C169G U176G, with 0.00581; and C82A A145U U176C, with 0.482; and C82G A111G A120C C150A C169U U176C, with 0.0175.
As for C82U A120C A145U C169G U176G, the reverse-splicing fitness came to 0.00338.
Then C82G A111U A145G C150U C169G U176A, with 0.0141; and A111U A120G A145C C150U U176A, with 0.0191; and A145G C150G C169G U176C, with 0.0156.
With C82A A120U A145C, the reverse-splicing fitness was determined as 0.128.
For A111G A120G A145C C150G U176A the value was 0.014; for C82G A111C A145U C150G C169A U176A, 0.00956.
In the case of A111C A120U A145C C150A C169A U176C, the reverse-splicing fitness was found to be 0.00233.
For C82G A111C A120U A145U C150U C169A U176C the value was 0.00293; for C82U A111U A120C C169A, 0.00717; for C82A A111C A120C A145U C150A C169G U176G, 0.00745.
Then C82A A111G C150A U176G, with 0.0144; and A120G A145G C150U C169U U176A, with 0.145; and A111G C169G, with 0.117.
Then C82U A111G A120C A145C C169U U176G, with 0.0032; and C82A A111C A120C C169G, with 0.0083; and C82A A111C A120C C169A, with 0.00922.
For C82U A111U A120G C150G C169U U176C, the reverse-splicing fitness stood at 0.0119.
Then C82G A111C A120U A145C C169G U176C, with 0.00339; and C82U A111U A120C C150U C169U U176A, with 0.0177; and C82U A111U A120G A145C C150U C169G, with 0.00792.
Then C82G A111U A120U A145U C150U C169U U176A, with 0.00325.
Then C82A A111C A120C A145C C150U U176G, with 0.00571; and A111C A120C A145U C169U U176G, with 0.00761.
On to C82G A111C A145C C150A C169A U176A, for which the reverse-splicing fitness is 0.0136.
For C82U A111C C169A U176A the value was 0.016; for A111U A120G A145C C150G U176C, 0.0143.
Then C82U A120G A145C C150G C169G, with 0.00837; and C82A A145C C150A C169G U176G, with 0.00671; and C82G A120G C169U U176C, with 0.024.
Then C82G A111G C169G U176C, with 0.0239; and C82G A111U A120C C150U C169U U176A, with 0.0146.
A120G C150G C169A U176G: the reverse-splicing fitness came to 0.0055.
For C150A C169U U176C, the reverse-splicing fitness was determined as 0.0421.
With C82U A111C A120C A145C C150G C169U U176A, the reverse-splicing fitness was found to be 0.0102.
For A111G A120C A145U C150U the value was 0.579; for C82U A111U A120C C150A C169G U176C, 0.0181.
C82A A120G A145G C169G U176G: the reverse-splicing fitness worked out at 0.00359.
Then C82G A111G A145C C150A U176C, with 0.0173; and C82G A111C A120G A145C U176A, with 0.0152.
As for C82A A111C A120C A145G C169A, the reverse-splicing fitness worked out at 0.00886.
As to C82G A120U C150G C169G U176C, the reverse-splicing fitness is 0.00277.
Then C82U A111C A120G A145G C150G C169G U176G, with 0.00526.
As to C82U A111G A120C A145C C150G C169A U176C, the reverse-splicing fitness came to 0.00573.
Then C82U A145C C150U U176A, with 0.114; and C82A A111C A120C A145C C169A U176A, with 0.0158.
Then A111C C150A C169U, with 0.019.
For C82A A111C A120U C169A U176A the value was 0.00417; for C82G A111C A120G A145U C169G U176A, 0.0117.
For C82U A120C A145U C169A U176G, the reverse-splicing fitness was 0.00364.
For C82A A111C A120C A145G C150U U176G the value was 0.00852; for C82U A120C C150U U176C, 0.0444.
Then C82G A111G A145U C150A C169G, with 0.00845; and A111G A120C A145C C150A U176C, with 0.0404; and C82G A111U A120C A145G C150U C169U U176G, with 0.00687.
For C82U A111G A120U A145G C150A C169A U176C the value was 0.00365; for A111C A120C C150G C169G U176A, 0.00796; for C82G A111U A120G C150G C169U, 0.00861.
As to C82A A111C A120G A145G C150U C169U U176A, the reverse-splicing fitness was 0.0155.
Then A111G A120U A145U C150G C169A U176G, with 0.0022.
